# Laboratory results from patent US7459439B2, “Granulysin peptides and methods of use thereof” (The Regents of the University of California, priority 2003, dated 2008).
# B1: granulysin: 9 kDa arginine-rich protein, late T cell activation marker, member of saposin-like proteins (protein)
# chain: GRDYRTCLTIVQKLKKMVDKPTQRSVSNAATRVCRTGRSRWRDVCRNFMRRYQSRVIQGLVAGETAQQICEDLR
# modifications: H. sapiens
# How the values were obtained:
# [1] = system: TNF-α production by monocytes; assay: Inhibition of TNF-α production by monocytes; assay type: cell-based; conditions: FIG. 4b
# [2] = system: IL-12 production by monocytes; assay: Inhibition of IL-12 production by monocytes; assay type: cell-based; conditions: FIG. 4a
# [3] = system: Propionibacterium acnes; assay: Killing of / antimicrobial activity against P. acnes; conditions: FIG. 1-3
# From the text: The susceptibility of a particular microbe or virus to killing or inhibition by granulysins may be determined by in vitro testing, as detailed in the experimental section. Typically a culture of the microbe is combined with granulysins at varying concentrations for a period of time sufficient to allow the protein to act, usually ranging from about one hour to one day. The viable microbes are then counted, and the level of killing determined.
# [4] = system: M. tuberculosis; conditions: cited from earlier work
# [5] = system: bacteria, parasites and fungi; assay: Range of antimicrobial activity of granulysin; assay type: cell-based; conditions: experiments performed in applicant's laboratory
# From the text: Granulysin is a 9 kDa basic (arginine-rich) protein and is a member of a larger group of proteins, referred to as saposin-like proteins (sphingolipid activator protein like protein=SAPLIP). This family has been highly conserved for almost a billion years, from amoebas to humans. […] This family includes NK-lysin, isolated from pig intestines, and amoebapores, used by amoebas to kill bacterial prey. […] We have synthesized a shorter granulysin peptide 20 amino acid in length and tested for antimicrobial activity. Further modification of this peptide was done by substituting a more hydrophobic amino acid residue, tryptophan at position 44, and tested for antimicrobial activity.
# [6] = system: bacterial membranes; conditions: Ernst et al. (2000); cited from earlier work
molecule,measurement,setting,value
granulysin peptide #31-50(W44): Modified 20 amino acid granulysin peptide 31-50 with tryptophan substituted at position 44; probably SEQ ID NO:3 TRVSRTGRSRWRDWSRNFMR,inhibition of TNF-α production by monocytes,[1],able to inhibit
same,inhibition of IL-12 production by monocytes,[2],able to inhibit IL-12
"granulysin peptide #31-50: Synthetic peptide of residues 31-50 of human granulysin, SEQ ID NO:2 (TRVCRTGRSRWRDVCRNFMR) (TRVCRTGRSRWRDVCRNFMR; H. sapiens)",killing of P. acnes / antimicrobial activity against P. acnes,[3],effective at killing P. acnes
B1,effect on M. tuberculosis by electron microscopy,[4],trigger fluid accumulation in the periplasm of M. tuberculosis
same,range of antimicrobial activity,[5],"wide range of antimicrobial activity against bacteria, parasites and fungi"
same,killing of P. acnes / antimicrobial activity against P. acnes,[3],effective at killing Propionibacterium acnes
same,alteration of bacterial membranes,[6],"increasing their permeability, inducing lesions on the surface of bacteria and separation of the cell wall and membranes from the cytoplasm"
